Measured values published in article PMC9474862.
pKd: −log10 of the molar value.

Target: APE1 WT (Homo sapiens) (UniProt P27695)
Test: EMSA
Conditions: apparent Kd, 1 mM EDTA, EMSA: 20 nM NCP, 10 mM HEPES pH 7.5, 25 mM NaCl, 1 mM DTT, 0.1 mg/mL BSA, 5% native PAGE, 0.2x TBE, 4 °C (gel), binding temperature not stated

UniProt P27695, sequence (P27695 whole entry): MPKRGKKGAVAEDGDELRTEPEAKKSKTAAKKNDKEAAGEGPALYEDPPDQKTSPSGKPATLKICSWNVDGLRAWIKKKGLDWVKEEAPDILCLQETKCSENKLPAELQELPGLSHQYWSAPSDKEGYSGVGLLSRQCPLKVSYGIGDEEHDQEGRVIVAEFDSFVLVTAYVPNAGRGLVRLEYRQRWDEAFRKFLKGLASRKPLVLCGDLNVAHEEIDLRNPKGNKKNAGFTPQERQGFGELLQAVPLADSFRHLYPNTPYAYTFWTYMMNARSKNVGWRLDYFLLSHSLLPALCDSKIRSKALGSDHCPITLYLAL

ATCGAGAATCCCGGTGCCGAGGCCGCTCAATTGGTCGTAGACAGCTCTAGCACCGCTTAAACGCACGTACGCGCTGTCCCCCGCGTTTTAACCGCCAAGGGGATTACTCCCTAGTCTCCAGGCACGTGTCAGATATATACATNCGAT / ATCGGATGTATATATCTGACACGTGCCTGGAGACTAGGGAGTAATCCCCTTGGCGGTTAAAACGCGGGGGACAGCGCGTACGTGCGTTTAAGCGGTGCTAGAGCTGTCTACGACCAATTGAGCGGCCTCGGCACCGGGATTCTCGAT [AP-NCP-6.5]
pKd (one-site fit with ligand depletion, N in strand 1 = THF (AP site analog) at SHL-6.5, occluded): 7.70

ATCGAGAATCCCGGTGCCGAGGCCGCTCAATTGGTCGTAGACAGCTCTAGCACCGCTTAAACGCACGTACGCGCTGTCCCCCGCGTTTTAACCGCCAAGGGGATTACTCCCTAGTCTCCAGGCACGTGTCAGATATATNCATCCGAT / ATCGGATGTATATATCTGACACGTGCCTGGAGACTAGGGAGTAATCCCCTTGGCGGTTAAAACGCGGGGGACAGCGCGTACGTGCGTTTAAGCGGTGCTAGAGCTGTCTACGACCAATTGAGCGGCCTCGGCACCGGGATTCTCGAT [AP-NCP-6]
pKd (one-site fit with ligand depletion, N in strand 1 = THF (AP site analog) at SHL-6, solvent-exposed): 7.77

ATCGAGAATCCCGGTGCCGAGGCCGCTCAATTGGTCGTAGACAGCTCTAGCACCGCTTAAACGCACGTACGCNCTGTCCCCCGCGTTTTAACCGCCAAGGGGATTACTCCCTAGTCTCCAGGCACGTGTCAGATATATACATCCGAT / ATCGGATGTATATATCTGACACGTGCCTGGAGACTAGGGAGTAATCCCCTTGGCGGTTAAAACGCGGGGGACAGCGCGTACGTGCGTTTAAGCGGTGCTAGAGCTGTCTACGACCAATTGAGCGGCCTCGGCACCGGGATTCTCGAT [AP-NCP0]
pKd (one-site fit with ligand depletion, N in strand 1 = THF (AP site analog) at SHL0 (dyad), occluded): 7.70

ATCGAGAATCCCGGTGCCGAGGCCGCTCAATTGGTCGTAGACAGCTCTAGCACCGCTTAAACGCACGTACGCGCTGTCCCCCGCGTTTTAACCGCCAAGGGGATTACTCCCTAGTCTCCAGGCACGTGTCAGATATATACATCCGAT (double strand) [ND-NCP]
pKd (nonspecific binding, no AP site): 7.15
